Values of other authors as cited in publication PMC4411102 (PLoS ONE, 2015).

B1: human defensin-5: antimicrobial peptide (peptide, UniProt Q01523 20-94, looked up)
Defensin alpha 5: ESLQERADEATTQKQSGEDNQDLAISFAGNGLSALRTSGSQARATCYCRTGRCATRESLSGVCEISGRLYRLCCR
modifications: Defensin-5
notes: antimicrobial peptide
B2: secretory leucocyte protease inhibitor (SLPI): natural antimicrobial peptide (protein, UniProt P03973 26-132, looked up)
Antileukoproteinase: SGKSFKAGVCPPKKSAQCLRYKKPECQSDWQCPGKKRCCPDTCGIKCLDPVDTPNPTRRKPGKCPVTYGQCLMLNPPNFCEMDGQCKRDLKCCMGMCGKSCVSPVKA

Test system: HIV
Excerpt: HIV-1 infection can be targeted at various stages, for example, viral entry, viral replication or assembly of viral components. HIV entry into the host cells is facilitated by binding of viral envelope glycoprotein (gp120) to host CD4 receptor [3, 4]. CD4-gp120 interaction initiates a cascade of events that stimulates gp41 to promote viral and host membrane fusion. Inhibition of gp120-CD4 interaction or virus-host cell fusion thus appears to be an attractive strategy to prevent HIV-1 infection. Towards this, significant advances have been made. […] Moreover, some of the AMPs cause adverse effects on vaginal commensals like lactobacilli which are required to maintain low pH in vaginal mucosa.

Molecule	Effect on HIV infection	Anti-HIV activity
B1	exacerbate HIV infection	
B2		reported to have anti-HIV activity
